Results as given in the nanobody polyreactivity screen of Harvey et al. (2022).

Experiment: yeast display, Sf9 membrane polyspecificity reagent, FACS + sequencing; frameworks hold sequencing errors
Method in brief: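 Using colony PCR, genes from sorted yeast display clones were amplified, then sequenced on MiSeq at 2 × 250 and filtered by CDR length. The clones had been stained with 10% biotinylated, detergent-solubilized Sf9 membrane reagent for 1 hour at 4 °C and sorted by FACS into low and high (top ~1%) gates on anti-HA and streptavidin fluorescence. Polyreactivity labels come from the gate of origin.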

Sequence	polyreactivity (PSR sort gate)
QVQLVESGGGLVQAGGSLRLSCAASGSIFFWYTMGWYRQAPGKERELVATITGSGSSTTYADSVKGRFTISRDYAKNTVYLQMNSLKPEDTAVYYCAAADIIDHSFPYDYWGQGTQVTVSS	low polyreactivity
QVQLVESGGGLVQAGGSLRLSCAASGSIFFYNTMGWYRQAPGKERELVAAISASGGRTYYADSVKGRFTISRDNAKNTVYLQMISLKPEDTAVYYCAVRVPYRGYTRYDYWGQGTQVTVSS	high polyreactivity
QVQLVESGGGLVQAGGSLRLSCAASGSIFFYNTMGWYRQAPRKERELVAAISSSGRTYYADSVKGRFTISRDNAKNTVYLQMNSLKPEDTAVYYCAKRTWRGYDYWGQGTQVTVSS	high polyreactivity
QVQLVESGGGLVQAGGSLRLSCAASGSIFFYYAMGWYRPAPGKERELVAAITSGGTTNYADSVNGRFTISRDNAKNTVYLQMNSLKPEDTAVYYCAVAGPRYAFFEYDYWGQGTQVTVSS	low polyreactivity
QVQLVESGGGLVQAGGSLRLSCAASGSIFFYYAMGWYRQAPGKERELVAAINSDGSTNYADSVKGRFTISRDNAKNTVYLQMNSVKPEDTAVYYCAADYVYYYHEYDYWGQGTQVTVSS	low polyreactivity
QVQLVESGGGLVQAGGSLRLSCAASGSIFFYYAMGWYRQAPGKERELVAAINWTGGRTYYADSVKGRFTISRDNAKNTVYLQMNSLKPEDTAVYYWAAEYYGQHDTYEYWGQGTQVTVSS	high polyreactivity
QVQLVESGGGLVQAGGSLRLSCAASGSIFFYYAMGWYRQAPGKERELVAAITGSGGSTYYADSVKGRFTISRDNAKNTVYLQMNSLKPEDTAVYSCAADRTVRAVYYGYGYWGQGTQVTVSS	low polyreactivity
QVQLVESGGGLVQAGGSLRLSCAASGSIFGANTMGWYRQAPGKERELVAAISSGGNTYYADSVKGRFTISRDNAKNTVYLQMNSLKPEDTAVYYCNAQTRYRYQYGYLGGTGYNYWGQGTQVTVSS	low polyreactivity
QVQLVESGGGLVQAGGSLRLSCAASGSIFGANTMGWYRQAPGKERELVAGITSGARTYYADSVKGRFTISRDNAKNTVYLQMNSLKPEDTAVYYCAAQYAWRRYGYWGQGTQVTVSS	high polyreactivity
QVQLVESGGGLVQAGGSLRLSCAASGSIFGAYAMGWYRQAPGKERELVAAISSSVDRTYYADSVKGRFTISRDNAKNTVYLQMNSLKPEDTAVYYCAARWGTRDRTKYYYWGQGTQVTVSS	high polyreactivity
QVQLVESGGGLVQAGGSLRLSCAASGSIFGDNAMGRYRQAPGKERELVAVISSSGSTYYADSVKGRFTISRDTAMNTVYLQMNSLKAEDTAVYYCNAYEFDWYEEYYYWGQGTQVTVSS	low polyreactivity
QVQLVESGGGLVQAGGSLRLSCAASGSIFGDNAMGWYRQAPGKERELVAAISGSTGSTNYADSVKGRFTISRDNAKNTVYLQMNSLKPEDTAVYYCNVGGLEYFVFKGVSVPDDYWGQGTQVTVSS	low polyreactivity
QVQLVESGGGLVQAGGSLRLSCAASGSIFGDNAMGWYRQAPGKERELVASITWSGGSTFYADSVKGRFTISRDNAQITVYLQMNSLKPEDTAVYYCAADTAEYLYDMDYWGQGTQVTVSS	low polyreactivity
QVQLVESGGGLVQAGGSLRLSCAASGSIFGDYAMGWSSQAPGKEGELVAAISRGDGTYYADSVKGRFTISRDNAKNTVYLQMNSLKPEDTAVYYCNAGGRYHAPSGDFWGQGSQVTVSS	low polyreactivity
QVQLVESGGGLVQAGGSLRLSCAASGSIFGDYAMGWYRQAPGKEREFVAGITRRGGRTYYADSVKGRFTISRDNAKNTVYLQMHSLKPEDTAVYYCNAVYSSSLRSKYDYWGQGTQVTVSS	high polyreactivity
QVQLVESGGGLVQAGGSLRLSCAASGSIFGDYAMGWYRQAPGKERELVAGITQSGSSTYYADSVKGRFTISRDNAKNTVYLQMNSLKPEDTAVYYCNKDWGPGPNEFDYWGQGTQVTVSS	low polyreactivity
